Patent US20230393144A1 (I MAB BIOPHARMA US, published 2023)

Biological target: T1, anti-CD47 antibody TJC4
T1 construct: Tested as whole antibody; It was detected with an anti-human IgG4 secondary antibody, so it is human IgG4; also called therapeutic anti-CD47 antibody
Test: indirect ELISA / blocking IC50 of the purified hybridoma antibody against anti-CD47 TJC4
Excerpt: The binding of the anti-idiotypic antibodies generated in Examples 2 and 3 to anti-CD47 TJC4 antibody was characterized by indirect ELISA assay, and the IC₅₀ of the anti-idiotypic antibodies was used as a measure of their potential effectiveness in reducing interference by a therapeutic anti-CD47 antibody in a serological assay. Lower IC₅₀ values indicated stronger blocking ability. […] The IC₅₀ value for 9F9H11H8, and, therefore, the blocking ability of 9F9H11H8, was better than those of 37F8C4G12 and 34D8H11B5 (i.e., anti-idiotypic antibodies produced by other hybridoma clones).

T1 sequence (VH, as listed by the source, chain 1 of 2): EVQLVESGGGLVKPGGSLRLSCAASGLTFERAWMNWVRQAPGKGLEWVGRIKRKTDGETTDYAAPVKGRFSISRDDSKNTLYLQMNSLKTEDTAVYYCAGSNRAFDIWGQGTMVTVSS
T1 sequence (VL, as listed by the source, chain 2 of 2): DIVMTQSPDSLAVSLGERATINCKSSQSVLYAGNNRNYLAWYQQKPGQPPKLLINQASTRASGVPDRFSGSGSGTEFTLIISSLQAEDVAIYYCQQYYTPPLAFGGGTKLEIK

B1: anti-idiotypic antibody 9F9H11H8 (antibody, V domains shown)
VH: QIQLVQSGPELKKPGETVKISCKASGFTFTNYGMNWVRQAPGKGLKWMGWINTYTGQPTHADDFKGRFAFSLETSARTAFLEINSLQNEDTATYFCARGGMGVRLRYFDVWGAGTTVTVSS
VL: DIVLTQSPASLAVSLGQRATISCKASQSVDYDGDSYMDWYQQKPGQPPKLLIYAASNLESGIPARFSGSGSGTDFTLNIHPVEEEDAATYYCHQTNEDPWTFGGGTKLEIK
notes: also called 9F9H11F8
With B1 the IC50 was 0.382 µg/mL.
